We go through 14 molecules from patent WO2021241730A1 (dated 2021).

Where a chain is given by its changes, count along the chain named.

In assay [1] the target is T1, mouse IL-22BP-His (mouse, UniProt Q80XF5 21-230).
T1 chain: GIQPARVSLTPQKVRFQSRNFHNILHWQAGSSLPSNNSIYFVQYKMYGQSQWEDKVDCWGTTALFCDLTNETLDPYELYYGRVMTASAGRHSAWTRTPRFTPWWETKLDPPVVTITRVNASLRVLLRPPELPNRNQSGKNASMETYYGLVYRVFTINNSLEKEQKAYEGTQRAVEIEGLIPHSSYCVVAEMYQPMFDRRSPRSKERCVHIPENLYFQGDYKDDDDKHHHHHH
In words: direct ELISA on coated mouse IL-22BP-His. On the technique in general: In an ELISA, binding on a coated surface is turned into a signal by an enzyme label.

The next assay has as its target T2, monkey IL-22BP-His (monkey).
T2 chain: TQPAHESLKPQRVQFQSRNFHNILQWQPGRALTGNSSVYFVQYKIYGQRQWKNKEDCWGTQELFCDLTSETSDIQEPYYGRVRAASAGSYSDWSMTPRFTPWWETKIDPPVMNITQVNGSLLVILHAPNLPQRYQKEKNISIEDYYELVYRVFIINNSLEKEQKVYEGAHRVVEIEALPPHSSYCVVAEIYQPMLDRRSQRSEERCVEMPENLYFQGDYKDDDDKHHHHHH
Description: direct ELISA on coated monkey IL-22BP-His, purified rat antibody.

The target of assay [2] is T3, human IL-22BP (Isoform 2)-His (human, UniProt Q969J5 22-263).
T3 construct: Expressed in FreeStyle 293F cells and purified from the culture supernatant; also called human IL-22BP-His
T3 sequence: T2 chain with P3S, A4T, F64S, D92E, Q132Y, I140V, V149L, V172A, P179T, M209I
Description: direct ELISA screen on coated human IL-22BP-His, then competition ELISA with IL-22; hybridoma supernatant.

For assay [3], the target named is T3, human IL-22BP (Isoform 2)-His. Description: competition ELISA on captured human IL-22BP-His, IL-22 as competitor; stronger inhibitory tendency than cMAb4 and the hMAb4 antibodies.
For assay [4] the target is unchanged. Description: direct ELISA on coated human IL-22BP-His, purified rat antibody.
Assay [5] concerns the target T1, mouse IL-22BP-His. In words: direct ELISA on coated mouse IL-22BP-His, purified rat antibody.
Assay [6] addresses T3, human IL-22BP (Isoform 2)-His. Description: competition ELISA on captured human IL-22BP-His, IL-22 as competitor; weaker inhibitory tendency than cMAb3 and the hMAb3 antibodies.

B1: rat anti-human IL-22BP antibody rMAb3 (antibody, rat IgG1, V domains shown)
VH: EVQLQQSGAELVRPGTSVKLSCKLSGGTISAYFIHFVKQRPGQGLEWIGRIDPEDDSTEYAEKFKNKATLTADTSSNTAYLILGSLTSDDTATYFCTTGSDYWGQGVMVTVSS
VL: DVVMTQTPVSLSLAIGQPASISCKSSQSLLGTSGKTFLNWILQRPGQSPKRLIYQVSKLYSGVPDRFSGSGSETEFTLKISRVEAEDLGVYYCWQGTLFPRTFGGGTKLEVKR
notes: Rat IgG1, kappa chain, from hybridoma
As to B1, the figures for the binding result (with mouse IL-22BP-His [1]; with monkey IL-22BP-His; in assay [2]) were “no binding”, “binds” and “binds”, respectively.

B2: human chimeric anti-human IL-22BP antibody cMAb3 (antibody, human IgG1, kappa, V domains shown)
VH: B1 VH
VL: B1 VL
notes: Rat variable regions on human IgG1 / kappa constant regions
B2: the binding result in assay [3] is “binds”.

B3: humanized anti-human IL-22BP antibody hMAb3_H01L03 (antibody, human IgG1, kappa, V domains shown)
VH: EVQLVQSGAEVKKPGASVKVSCKASGGTISAYFIHWVRQAPGQGLEWMGRIDPEDDSTEYAQKFQGRVTITADTSTNTAYMELSSLRSEDTAVYYCTTGSDYWGQGTLVTVSS
VL: B1 VL with S12P, L13V, A14T, I15L, L42Q, E73G, E75D, L88V, L109V, V111I
notes: Human IgG1 / kappa
For B3, the binding result in assay [3] is “binds”.

B4: humanized anti-human IL-22BP antibody hMAb3_H04L03 (antibody, human IgG1, kappa, V domains shown)
VH: B3 VH with A24L, W36F, I70L, M81L, Y95F
VL: B1 VL with S12P, L13V, A14T, I15L, L42Q, E73G, E75D, L88V, L109V, V111I
notes: Human IgG1 / kappa
In the case of B4, the binding result in assay [3] was “binds”.

B5: humanized anti-human IL-22BP antibody hMAb3_H01L04 (antibody, human IgG1, kappa, V domains shown)
VH: B3 VH
VL: DVVMTQSPLSLPVTLGQPASISCKSSQSLLGTSGKTFLNWIQQRPGQSPKRLIYQVSKLYSGVPDRFSGSGSGTEFTLKISRVEAEDVGVYYCWQGTLFPRTFGGGTKVEIKR
notes: Human IgG1 / kappa
Regarding B5, the binding result in assay [3] is reported as “binds”.

B6: rat anti-human IL-22BP antibody rMAb20 (antibody, rat IgG1, V domains shown)
VH: QVQLKESGPGLVQPSQTLSLACTVSGFSLTTYHVHWVRQPSGEGLEWMGVIWTGGSTEYNSALKPRLSISRDTSKSQVFLKMNVLQTEDTATYYCARESRGRRIFDYWGQGVMVTVSS
VL: DIQMTQSPSVLSASVGDRVTLNCKASQNINKYLNWYQQKLGEAPKLLIYNTNNLQTGIPSRFSGSGSGTDYTLTISSLQPEDFGTYFCFHHNSWPLTFGSGTKLEIKR
notes: as for B1
In the case of B6, the binding result is “no binding” in the assay with mouse IL-22BP-His [1], “binds” with monkey IL-22BP-His and “binds” in assay [4].

B7: rat anti-human IL-22BP antibody rMAb8 (antibody, rat IgG2a, V domains shown)
VH: QVQLKESGPGLVQPSQTLSLTCTVSGFSLSSYTVSWVRQPPGKGLDWIAAISSGGSTYYNSALKSRLTISRDTSKSQVFLKMNSLQTEDTAMYFCARSTGDYWGQGVMVTVSS
VL: DIQMTQSPSLLSASVGDRVTLNCKASQSIYKNLAWYQQKLGEAPKLLIYSAKSLQTGTPSRFSGSGSGTDFTLTISSLQPEDVATYFCHQYYSGWTFGGGTKLELKR
notes: Rat IgG2a, kappa chain, from hybridoma
Take B7: the binding result (in the assay with monkey IL-22BP-His; with mouse IL-22BP-His [5]; in assay [4]) was “binds” each time.

B8: rat anti-human IL-22BP antibody rMAb14 (antibody, rat IgG1, V domains shown)
VH: B7 VH with S30T, D46E, T68S, N83S, T90A
VL: B7 VL with S28N, A43T, K45R, K52N, S53R, T58I
notes: as for B1
As for B8, the binding result (in the assay with monkey IL-22BP-His; with mouse IL-22BP-His [5]; in assay [4]) was “binds” throughout.

B9: rat anti-human IL-22BP antibody rMAb4 (antibody, rat IgG1, V domains shown)
VH: EVQLVESGGGLVQPGRSLKLSCAASGFTYSNYVMAWVRQAPTKGLEWVASISTGGGNTSYRDSVKGRFTISRDNAKNTLYLQMDSLRSEDTATYYCANVSPTEGMDYWGQGVMVTVSS
VL: DIVMTQGALPNPVPSGESVSITCRSSKSLLYSNGKTYLNWYLQRPGQSPQLLIYWMSTRASGVSDRFSGGGSGTDFTLKISGVEAEDVGVYYCQQGLELPLTFGSGTKLEIKR
notes: as for B1
Consider B9, for which the results for the binding result (with mouse IL-22BP-His [1]; with monkey IL-22BP-His; in assay [2]) were “no binding”, “binds” and “binds”, respectively.

B10: human chimeric anti-human IL-22BP antibody cMAb4 (antibody, human IgG1, kappa, V domains shown)
VH: B9 VH with S59A, N98R
VL: B9 VL
notes: as for B2
As for B10, the binding result in assay [6] is “binds”.

B11: humanized anti-human IL-22BP antibody hMAb4_H03L01 (antibody, human IgG1, kappa, V domains shown)
VH: EVQLVESGGGLVQPGGSLRLSCAASGFTYSNYVMAWVRQAPGKGLEWVASISTGGGNTAYRDSVKGRFTISRDNSKNTLYLQMNSLRAEDTAVYYCARVSPTEGMDYWGQGTLVTVSS
VL: DIVMTQGPLSLPVTPGEPASISCRSSKSLLYSNGKTYLNWYLQKPGQSPQLLIYWMSTRASGVPDRFSGGGSGTDFTLKISRVEAEDVGVYYCQQGLELPLTFGQGTKVEIKR
notes: Human IgG1 / kappa
Regarding B11, the binding result in assay [6] was “binds”.

B12: humanized anti-human IL-22BP antibody hMAb4_H03L03 (antibody, human IgG1, kappa, V domains shown)
VH: B11 VH
VL: DIVMTQGPDSLAVSLGERATITCRSSKSLLYSNGKTYLNWYQQKPGQPPKLLIYWMSTRASGVPDRFSGGGSGTDFTLTISSLQAEDVAVYYCQQGLELPLTFGQGTKVEIKR
notes: Human IgG1 / kappa
Regarding B12, the binding result in assay [6] is “binds”.

B13: humanized anti-human IL-22BP antibody hMAb4_H02L05 (antibody, human IgG1, kappa, V domains shown)
VH: B11 VH with A49S
VL: DIQMTQSPSSLSASVGDRVTITCRSSKSLLYSNGKTYLNWYQQKPGKSPKLLIYWMSTRASGVPDRFSGGGSGTDFTLTISSLQPEDFATYYCQQGLELPLTFGQGTKVEIKR
notes: Human IgG1 / kappa
In the case of B13, in assay [6], the binding result is reported as “binds”.

B14: rat anti-human IL-22BP antibody rMAb81 (antibody, rat IgG1, V domains shown)
VH: EVQLVESGGGLVQPGRSLKLSCLASGFTFSNYGMNWIRQAPGKGLEWVATISSGSSYIYYADTVKGRFTISRENARNTLYLQMTSLRSEDTAFYYCARPLTGAFDYWGQGVMVTVSS
VL: DIVLTQSPALAASLGQRATISCRASQSVSTSSHNLMHWYQQKPGHQPKLLIYAASNLASSIPARFSGSGSGTDFTLTINPVQADDIATYYCQQSRELPLTFGSGTKLEIKR
notes: as for B1
For B14, the binding result with mouse IL-22BP-His [1] was “no binding”; in the assay with monkey IL-22BP-His, “binds”; in assay [4], “binds”.
